Among the data in the supplement of paper PMC10126150 are switch fluorescence ratio values, retold here.

± gives the standard deviation of the averaged measurements.

The data set relates to ATP. Put plainly: switch fluorescence ratio, 500 uM ATP over buffer (Cy3 cluster intensity, sum of 5 cycles each) (fold (ratio)); higher = stronger signal-on switching upon ATP binding; sequences stand for … in TCGTCGGCAGCGTCAGATGTGTATAAGAGACAGTTTTTTTTTTTTTTTTTTTTTTTTT…TC. The following applies: aptamer strand: ATP DNA aptamer (quencher-CACCTGGGGGAGTATTGCGGAGGAAGG + anchor), 100 nM annealed; ATP concentration: 500 uM. Put shortly: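 Five buffer/ATP imaging cycles were run on Cy3-labelled switching-strand clusters on a modified Illumina MiSeq flow-cell, with NaOH stripping and re-annealing between cycles. In each cycle, clusters annealed to 100 nM quencher-labelled ATP aptamer were imaged in selection buffer, then after 15 min with 500 uM ATP at 22 °C. Per cluster, the fluorescence ratio is summed target-cycle over summed buffer-cycle Cy3 intensity, averaged per switch-domain sequence. Only clusters within 100-1000 RFU were kept.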
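Also: ATP exposure 15 min at 22 °C before imaging.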

Turning to AGCAGGGACT, the switch fluorescence ratio stood at 1.051 ± 0.0077.
With AGCAGGGCGG, the switch fluorescence ratio is 0.983 ± 0.011.
Consider AGCAGGGCTT, for which the switch fluorescence ratio was 1.04 ± 0.05.
Next, AGCAGGTGGG: 1.05 ± 0.076; AGCAGTTTAC: 1.17 ± 0.054; AGCATAAGC: 1.04 ± 0.012.
Next, AGCATGTCGT: 1.01 ± 0.015; AGCATTGGCT: 1.016 ± 0.0011; AGCCACATGG: 0.98 ± 0.031.
The result for AGCCACGCGT reads 1.01 ± 0.012.
AGCCAGCTGC: the switch fluorescence ratio came to 0.9924 ± 0.0095.
The result for AGCCAGGATG reads 1.104 ± 0.0047; that for AGCCCGGAAA, 1.023 ± 0.0038; that for AGCCGTTTCG, 0.999 ± 0.017.
As to AGCCTAAGAT, the switch fluorescence ratio was found to be 0.963 ± 0.012.
For AGCCTACGGG, the switch fluorescence ratio came to 1.0466 ± 0.00084.
The result for AGCCTATTGT reads 0.972 ± 0.035; that for AGCCTGCCCG, 1.05 ± 0.037.
For the sequence AGCCTTTCGT, the switch fluorescence ratio came out at 1.01 ± 0.054.
Take AGCGAATATT: the switch fluorescence ratio came out at 1.08 ± 0.098.
Next, AGCGAGAGAC: 1.102 ± 0.0025; AGCGAGCGAA: 1.01 ± 0.014; AGCGAGGGAG: 1.005 ± 0.0059.
The result for AGCGAGGTCG reads 1 ± 0.031.
Regarding AGCGCAAAAT, the switch fluorescence ratio stood at 1.02 ± 0.069.
The result for AGCGCAGTTT reads 0.999 ± 0.021; that for AGCGCATTGT, 1.02 ± 0.031.
The result for AGCGCGATTC reads 1.99 ± 0.13; that for AGCGCTGGGA, 1 ± 0.05; that for AGCGGAAGGC, 1.04 ± 0.024.
Next, AGCGGAGGGG: 1.04 ± 0.033; AGCGGGGCGC: 1.01 ± 0.069; AGCGGGGGTG: 1.02 ± 0.018.
For AGCGGGTAGG, the switch fluorescence ratio is 1.02 ± 0.013.
Next, AGCGGGTTG: 1.02 ± 0.017; AGCGGTCCTC: 1.09 ± 0.039; AGCGGTGGGA: 1.02 ± 0.032.
Turning to AGCGGTTTCC, the switch fluorescence ratio was 1.029 ± 0.0093.
Next, AGCGTCTCCG: 1.024 ± 0.006; AGCGTCTGTG: 0.962 ± 0.036.
The result for AGCGTTAGAG reads 1.09 ± 0.017.
Next, AGCGTTCTTA: 1.02 ± 0.041; AGCTACCTTC: 1.42 ± 0.041; AGCTAGAGTC: 1.03 ± 0.028.
For AGCTAGCCTT, the switch fluorescence ratio is 1.02 ± 0.028.
The result for AGCTAGGGGG reads 0.989 ± 0.022; that for AGCTATAGTA, 0.991 ± 0.01.
The result for AGCTATGGGA reads 1.04 ± 0.015.
Next, AGCTATGTTA: 1.03 ± 0.0045; AGCTATTCCG: 1.01 ± 0.013.
As for AGCTCCGACA, the switch fluorescence ratio was found to be 1.63 ± 0.058.
The result for AGCTCGCGTC reads 0.981 ± 0.021; that for AGCTCGGCGC, 1.02 ± 0.064.
Consider AGCTGAACGG, for which the switch fluorescence ratio amounted to 1.05 ± 0.025.
Next, AGCTGAGTAG: 0.997 ± 0.035; AGCTGAGTCT: 1.02 ± 0.034; AGCTGATAGG: 0.991 ± 0.032.
The result for AGCTGATGG reads 1.0343 ± 0.00071; that for AGCTGCTTGC, 1.04 ± 0.066.
With AGCTGGTGGA, the switch fluorescence ratio was 1.02 ± 0.024.
The result for AGCTTATTGC reads 0.977 ± 0.015.
As to AGCTTGGGTT, the switch fluorescence ratio is 0.98 ± 0.018.
AGCTTGTGAA: the switch fluorescence ratio came to 1.01 ± 0.011.
Next, AGCTTTAAAA: 0.981 ± 0.025.
The result for AGCTTTGGGA reads 0.995 ± 0.085.
The result for AGCTTTTTTA reads 1.02 ± 0.015; that for AGGAAAACAG, 1.026 ± 0.0032.
Consider AGGAAAGTAG, for which the switch fluorescence ratio was found to be 0.9719 ± 0.0097.
As for AGGAAGACAA, the switch fluorescence ratio turned out to be 1.03 ± 0.028.
The result for AGGAAGCGGG reads 1.0224 ± 0.00031; that for AGGAAGTCTT, 0.941 ± 0.021.
The result for AGGAAGTTGC reads 0.9883 ± 0.0085; that for AGGAATAAGC, 1.01 ± 0.012.
AGGAATCGGG: the switch fluorescence ratio stood at 0.993 ± 0.047.
Next, AGGACAAATC: 0.985 ± 0.026.
The result for AGGACCAGCA reads 1.024 ± 0.0075; that for AGGACGATGG, 1.1 ± 0.16.
Next, AGGACTCGGG: 1.04 ± 0.068; AGGAGAATCT: 1 ± 0.025.
As for AGGAGAGCTT, the switch fluorescence ratio came to 1.02 ± 0.012.
As for AGGAGAGGGA, the switch fluorescence ratio was found to be 0.995 ± 0.038.
As for AGGAGATAAA, the switch fluorescence ratio was determined as 0.983 ± 0.015.
Next, AGGAGCAGCG: 0.919 ± 0.03; AGGAGCAGGG: 1 ± 0.05; AGGAGCGCGG: 1.027 ± 0.003.
The result for AGGAGCGGCA reads 1.018 ± 0.0095; that for AGGAGCTGAA, 0.987 ± 0.021; that for AGGAGCTTTC, 1.08 ± 0.039.
Next, AGGAGGAGTA: 0.968 ± 0.019; AGGAGGATGT: 0.98 ± 0.01; AGGAGGCATT: 1.02 ± 0.02.
With AGGAGGGAAC, the switch fluorescence ratio was determined as 0.9916 ± 0.0016.
The result for AGGAGGGATA reads 1.04 ± 0.015; that for AGGAGGGCTG, 0.984 ± 0.011.
The result for AGGAGGGGAT reads 1.02 ± 0.045; that for AGGAGGGGG, 0.989 ± 0.049; that for AGGAGGGGTC, 1.01 ± 0.048.
Next, AGGAGGGTTT: 0.999 ± 0.032.
AGGAGGTTGG: the switch fluorescence ratio is 0.998 ± 0.017.
The result for AGGAGTAATC reads 1.04 ± 0.072; that for AGGAGTAATT, 1.01 ± 0.024; that for AGGAGTATGG, 1.02 ± 0.015.
The result for AGGAGTCGTT reads 1.02 ± 0.044; that for AGGAGTGGCG, 0.97841 ± 0.00086; that for AGGAGTTTTT, 0.98 ± 0.03.
Next, AGGATAAAGG: 1.03 ± 0.036; AGGATACTTT: 0.9793 ± 0.0038; AGGATATATT: 0.976 ± 0.0099.
For AGGATCGGCG, the switch fluorescence ratio stood at 0.9769 ± 0.0046.
Take AGGATGGTAT: the switch fluorescence ratio is 1.003 ± 0.01.
The result for AGGATTAGCT reads 0.999 ± 0.042.
The result for AGGATTGGGG reads 1 ± 0.043.
The result for AGGCAAGGGG reads 1.04 ± 0.069; that for AGGCAATGTC, 1.48 ± 0.17.
Turning to AGGCAATGTT, the switch fluorescence ratio came to 1.05 ± 0.013.
Next, AGGCACGCTG: 1.02 ± 0.014; AGGCACGTCG: 1.021 ± 0.009.
Next, AGGCAGAACG: 1.048 ± 0.0058; AGGCAGGCGG: 1.01 ± 0.073.
Next, AGGCAGTGTC: 1.04 ± 0.05.
